Results from the supplement of paper PMC9112550, “Optimization of the antimicrobial peptide Bac7 by deep mutational scanning” (BMC Biology, 2022).

System: Escherichia coli TOP10
Assay: shrunken log2 fold change of peptide-encoding DNA abundance (4.5 h post-induction vs induction); higher = less antimicrobial activity (less host growth inhibition)
Details: time post-induction: 4.5 h; library: site-saturation at positions 5, 18, 19, 20
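Also: peptides expressed intracellularly from a pBAD plasmid library in pooled LB shake-flask culture, induced with 0.3% L-arabinose, DNA abundance read by NGS, three biological replicates, DESeq2 with apeglm shrinkage.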

Sequence	shrunken log2 fold change
RRIRSRPPRLPRPRPRPYTFPRP	-1.01
RRIRWRPPRLPRPRPRPDVFPRP	0.019
RRIRMRPPRLPRPRPRPHQMPRP	0.126
RRIRMRPPRLPRPRPRPQISPRP	-0.28
RRIRGRPPRLPRPRPRPAWLPRP	0.694
RRIRQRPPRLPRPRPRPTTQPRP	0.0143
RRIRMRPPRLPRPRPRPLVQPRP	0.199
RRIRYRPPRLPRPRPRPHHDPRP	-0.917
RRIRERPPRLPRPRPRPFSFPRP	0.122
RRIRTRPPRLPRPRPRPQFDPRP	-0.652
RRIRYRPPRLPRPRPRPQDMPRP	0.000181
RRIRLRPPRLPRPRPRPNIDPRP	-0.213
RRIRSRPPRLPRPRPRPLDSPRP	-0.0139
RRIRCRPPRLPRPRPRPYESPRP	0.0203
RRIRVRPPRLPRPRPRPPEQPRP	0.0662
RRIRHRPPRLPRPRPRPWFVPRP	-0.14
RRIRARPPRLPRPRPRPIYQPRP	0.0519
RRIRIRPPRLPRPRPRPCAGPRP	-0.000248
RRIRERPPRLPRPRPRPYTDPRP	-0.956
RRIRTRPPRLPRPRPRPPWVPRP	0.128
RRIRRRPPRLPRPRPRPNWSPRP	-0.0147
RRIRSRPPRLPRPRPRPVCFPRP	0.156

Sequence	shrunken log2 fold change
RRIRPRPPRLPRPRPRPGSGPRP	1.05
RRIRVRPPRLPRPRPRPPCCPRP	0.117
RRIRPRPPRLPRPRPRPWEWPRP	0.0238
RRIRVRPPRLPRPRPRPSFGPRP	-0.463
RRIRDRPPRLPRPRPRPGPQPRP	-0.0494
RRIRGRPPRLPRPRPRPETLPRP	1.37
RRIRCRPPRLPRPRPRPEAFPRP	0.13
RRIRTRPPRLPRPRPRPWVTPRP	-0.117
RRIRNRPPRLPRPRPRPVDGPRP	-0.175
RRIRQRPPRLPRPRPRPSFTPRP	-1.12
RRIRRRPPRLPRPRPRPSWKPRP	0.16
RRIRDRPPRLPRPRPRPNTEPRP	-0.0682
RRIRRRPPRLPRPRPRPPTHPRP	0.622
RRIRQRPPRLPRPRPRPEILPRP	0.00769
RRIRRRPPRLPRPRPRPMWAPRP	0.161
RRIRTRPPRLPRPRPRPPWPPRP	0.356
RRIRYRPPRLPRPRPRPAYYPRP	-0.318
RRIRVRPPRLPRPRPRPAGVPRP	0.283
RRIRYRPPRLPRPRPRPVPCPRP	-0.226
RRIRERPPRLPRPRPRPNQMPRP	-0.0733
RRIRVRPPRLPRPRPRPSLAPRP	-0.0683
RRIRVRPPRLPRPRPRPPRPPRP	0.648

Sequence	shrunken log2 fold change
RRIRWRPPRLPRPRPRPFFKPRP	-0.0879
RRIRWRPPRLPRPRPRPDYYPRP	-0.218
RRIRYRPPRLPRPRPRPAFRPRP	-0.287
RRIRNRPPRLPRPRPRPFINPRP	-1.59
RRIRQRPPRLPRPRPRPSPPPRP	0.169
RRIRIRPPRLPRPRPRPIITPRP	-0.625
RRIRTRPPRLPRPRPRPMIKPRP	-0.103
RRIRARPPRLPRPRPRPWGYPRP	-0.317
RRIRTRPPRLPRPRPRPRHMPRP	-0.115
RRIRMRPPRLPRPRPRPMWPPRP	0.0917
RRIRPRPPRLPRPRPRPYVHPRP	-0.356
RRIRHRPPRLPRPRPRPNNNPRP	-1.09
RRIRWRPPRLPRPRPRPHIHPRP	-0.359
RRIRERPPRLPRPRPRPASPPRP	-0.165
RRIRMRPPRLPRPRPRPTTEPRP	0.897
RRIRFRPPRLPRPRPRPDMGPRP	-0.176
RRIRVRPPRLPRPRPRPCFKPRP	-0.243
RRIRERPPRLPRPRPRPCTNPRP	-0.559
RRIRVRPPRLPRPRPRPLCEPRP	-0.131
RRIRIRPPRLPRPRPRPGYFPRP	-0.904
RRIRLRPPRLPRPRPRPFRQPRP	0.0662
RRIRKRPPRLPRPRPRPLSWPRP	0.826

Sequence	shrunken log2 fold change
RRIRLRPPRLPRPRPRPEYRPRP	-0.0221
RRIRQRPPRLPRPRPRPFLVPRP	0.000414
RRIRWRPPRLPRPRPRPKRSPRP	0.08
RRIRPRPPRLPRPRPRPLYQPRP	-0.0164
RRIRVRPPRLPRPRPRPHNWPRP	-0.0818
RRIRERPPRLPRPRPRPIWQPRP	0.062
RRIRDRPPRLPRPRPRPDNVPRP	-0.273
RRIRTRPPRLPRPRPRPPKRPRP	0.302
RRIRPRPPRLPRPRPRPPSVPRP	0.321
RRIRERPPRLPRPRPRPQPDPRP	-0.258
RRIRSRPPRLPRPRPRPDNRPRP	-0.00987
RRIRNRPPRLPRPRPRPPTAPRP	0.295
RRIRDRPPRLPRPRPRPWFIPRP	-0.157
RRIRFRPPRLPRPRPRPQKWPRP	-0.0281
RRIRMRPPRLPRPRPRPDLPPRP	-0.0325
RRIRWRPPRLPRPRPRPIMDPRP	-0.195
RRIRIRPPRLPRPRPRPKIDPRP	-0.573
RRIRDRPPRLPRPRPRPGKQPRP	-0.0597
RRIRARPPRLPRPRPRPDVPPRP	-0.0329
RRIRYRPPRLPRPRPRPIECPRP	0.00468
RRIRPRPPRLPRPRPRPDCNPRP	-0.319
RRIRARPPRLPRPRPRPHVWPRP	0.29

Sequence	shrunken log2 fold change
RRIRQRPPRLPRPRPRPMCAPRP	0.195
RRIRVRPPRLPRPRPRPHARPRP	0.0538
RRIRVRPPRLPRPRPRPQFYPRP	-0.806
RRIRSRPPRLPRPRPRPENLPRP	0.026
RRIRCRPPRLPRPRPRPFGCPRP	-0.308
RRIRWRPPRLPRPRPRPWPLPRP	-0.273
RRIRDRPPRLPRPRPRPFYKPRP	-0.421
RRIRGRPPRLPRPRPRPMAAPRP	1.4
RRIRYRPPRLPRPRPRPHVDPRP	-0.588
RRIRNRPPRLPRPRPRPRTKPRP	0.123
RRIRMRPPRLPRPRPRPGYPPRP	0.0749
RRIRGRPPRLPRPRPRPENWPRP	0.594
RRIRCRPPRLPRPRPRPDCIPRP	-0.027
RRIRGRPPRLPRPRPRPIFNPRP	0.051
RRIRWRPPRLPRPRPRPLGVPRP	0.459
RRIRRRPPRLPRPRPRPFFNPRP	-0.0577
RRIRWRPPRLPRPRPRPLFSPRP	0.0976
RRIRDRPPRLPRPRPRPIQTPRP	0.00408
RRIRRRPPRLPRPRPRPPKIPRP	0.403
RRIRLRPPRLPRPRPRPSNDPRP	2.11
RRIRYRPPRLPRPRPRPNIYPRP	-0.68
